The source of these data is paper PMC9603416.

The target in the series is T1, RR07-6xHis (Streptococcus pneumoniae R6) (UniProt Q8DRF5).
T1 sequence: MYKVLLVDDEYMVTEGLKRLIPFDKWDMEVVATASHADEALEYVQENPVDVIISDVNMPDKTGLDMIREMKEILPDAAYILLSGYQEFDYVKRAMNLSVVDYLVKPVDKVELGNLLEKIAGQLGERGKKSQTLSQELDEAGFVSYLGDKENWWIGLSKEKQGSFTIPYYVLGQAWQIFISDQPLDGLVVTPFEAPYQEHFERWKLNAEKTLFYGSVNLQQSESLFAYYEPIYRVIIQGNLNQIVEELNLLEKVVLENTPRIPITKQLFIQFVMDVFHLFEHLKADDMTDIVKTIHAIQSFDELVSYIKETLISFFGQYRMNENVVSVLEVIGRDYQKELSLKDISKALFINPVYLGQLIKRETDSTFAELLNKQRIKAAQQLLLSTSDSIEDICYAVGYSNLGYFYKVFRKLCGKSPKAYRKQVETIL
Put plainly: EMSA. The settings on record: EMSA: 1 nM dsDNA probe, increasing RR07, binding buffer 20 mM Tris-Cl (rest of the buffer, pH and temperature not in the material). On the technique in general: Mobility shift assays separate free from complexed probe on a gel.

On to “TGCAAAACCTCCTGATTGCATTGTTATATTGATAGCGATTATATAAATCAACGCCTTTATTTTATTTCTTATATTAACGAGAGTCAAGAGGAGATGACAAAAAACTATAATAAGTATAAAAAAATATAAAATTTAAACTTAAGATTTCAGATTGGTCGAAAAAATACATATATATATCTAGTATAATTTTTGGTTCTATTTCTATAAAATATTCCACAAATTATAGAATCTTCCAAAAATAGGTAAGCGCTACCTTTTTGGTGTGGTATAATAAGC (double strand) [PstrH]”, for which the binding entry is on record as “no binding”.

For “CACTGGTCTGGGGCACAAAGTAATTCATCCCAAAAGGCACGCCTGTGTATGGCAGGGTATTTCCCCGAGAGAAGGCATGCTTGCTAGCAGTACCAAAGCGGGTATCGATGGTTTCAAGTAGTGGTTTCATAGTCTTTCCTTTAGCTGTTTTTCTACATTATATCAGAAAAAGAGGGCCTTTAGAAAAGGAGTTTTAAAGATAACTATTTTGTAGAAAAATGACTATCATTTGTGTATGTATTTTCTGTCTCAAAAGCTATATACTGAACATGAAACTTGTTTGAAAGAGGGAATTGCACG (double strand) [Pgh125]”, the binding result was “no binding”.
